# Source: patent publication US9044392B2, “Nylon-3 co-polymers and synthetic lung surfactant compositions containing same” (Wisconsin Alumni Research Foundation, priority 2010, dated 2015)
# Where two headings read alike, the source gives them in different places.
# B1: SP-B: porcine-derived lung surfactant protein B in the Tanaka lipid film (protein, UniProt P15782 1-79, looked up)
# Pulmonary …: FPIPLPFCWLCRTLIKRIQAVVPKGVLLKAVAQVCHVVPLPVGGICQCLAERYIVICLNMLLDRTLPQLVCGLVLRCSS
# modifications: Pulmonary surfactant-associated protein B in Tanaka lipid film
# Key:
# [1] = Pulsating bubble surfactometry (PBS), static-bubble mode adsorption; type: physicochemical; conditions: 37° C., mimic 10 wt % in TL, originally synthesized polymers
# Experimental: (§1) Surfactant Sample Preparation: The lipids DPPC, POPG, and PA were individually dissolved in a chloroform/methanol solution (3/1 [v/v]) to a known concentration (˜2 or 4 mg mL^−1). Single-lipid solutions were then combined by volume at the ratio of DPPC:POPG:PA, 68:22:9 [wt:wt:wt] and to a known total lipid concentration (˜2 mg mL^−1). This well-characterized and well-known lipid formulation is considered an adequate mimic of the non-protein (lipid) fraction of LS.^45 The peptides, peptoid, and copolymers were individually dissolved in methanol from a lyophilized powder to a known concentration (1-2 mg mL^−1). For the PBS studies, the peptides, peptoids, and polymers were ‘spiked’ into the lipid mixture at 10 wt % relative to the total lipid content (9.1 absolute wt %), and to a final concentration of ˜1 mg lipid mL^−1. For comparative purposes, the inclusion of peptide/peptoid/copolymer at 10 wt % corresponds to 10 wt % SP-B1-25 (9.1 absolute wt %) relative to the total lipid content. The total combined protein fraction in natural LS is estimated to be ˜10 wt %.^18 For PBS experiments, all σ reported is the standard deviation of the mean.
# (§2) Pulsating Bubble Surfactometry: A commercial PBS instrument (General Transco, Largo, Fla.), modified with a direct, real-time imaging system, which has been previously described and validated in detail,^44 was utilized to obtain both static-mode and dynamic-mode data. Samples were dried from chloroform/methanol 3/1 [v/v] in Eppendorf tubes using a DNA 120 speedvac (Thermo Electron, Holbrook, N.Y.), forming a pellet. The pellet was suspended in buffer (150 mM NaCl, 10 mM HEPES, 5 mM CaCl2, pH 6.9) to 1.0 mg lipid mL^−1, with a final known volume of ˜70 μL. The samples were then mixed with a pipette 20 times, sonicated with a Fisher Model 60 probe sonicator for two 15 second spurts, and then mixed again 20 times to form a dispersed suspension. Samples were then loaded into a small plastic sample chamber (General Transco) using a modified leak-free methodology.^43,44 The sample chamber was then placed in the instrument, surrounded by a water bath held at 37° C. A bubble with a radius of 0.4 mm was then formed, and surface area was monitored throughout the experiment.
# (§3) Static-mode adsorption data were collected for 20 minutes, where the suspension was allowed to adsorb to the bubble surface over time. […] Dynamic-mode data were then subsequently obtained for each sample at the adult respiratory cycle frequency of 20 cpm for 10 minutes, with a 50% reduction in surface area per pulsation cycle. PBS experiments were repeated three to six times for each sample to ensure repeatability. Representative PBS loops are presented at five minutes of cycling, and indicate clockwise bubble expansion and counterclockwise compression (see FIGS. 6A, 6B, 6C, and 6D). Average γ±σ at selected time intervals are listed in the Examples for both data collection modes. Percent compression is defined here as 100*[(SAmax−SA20)/(SAmax)], where SAmax was the maximum SA value at expansion, and SA20 was the SA at which γ first reaches 20 mN m^−1 upon compression (FIG. 5).
# Pulsating Bubble Surfactometry: Static-Bubble Mode. The immediate adsorptive, γ-reducing effect, and stability of the films over time at a bubble […] interface were assessed via PBS in static-bubble mode. […]
# [2] = Pulsating bubble surfactometry (PBS), dynamic-bubble mode, 20 cpm; type: physicochemical
# Experimental: as §1, §2, §3
# Pulsating Bubble Surfactometry: Dynamic-Bubble Mode. The dynamic surfactant activity during changes in volume or film surface area provides an indication of film sustainability over time. Bubble pulsation at the approximate adult respiratory rate of 20 cycles per minute (cpm) in PBS dynamic-bubble mode at 37° C. permits a simplified evaluation of such dynamic film behavior.^44 In dynamic mode, after static-bubble adsorption, the bubble was subsequently pulsed for 10 minutes and y was recorded with respect to surface area. FIGS. 4A, 4B, 4C, and 4D depict the attained maximum and minimum γ (γmax/min) at 5 minutes of cycling for all lipid films containing polymers or positive controls. Mean γmax/min's±σ at selected time intervals for up to 10 minutes of cycling are located in Tables 4 and 5. […]
# [3] = at 5 minutes, static-bubble mode, TL film; cited from earlier work
# [4] = dynamic-bubble mode, cited from earlier work
# [5] = 5 minutes of dynamic-bubble cycling, 20 cpm, 37° C. (FIGS. 4A-4D)
# [6] = dynamic-bubble pulsation, 1 min, 37° C., mimic 10 wt % in TL, originally synthesized polymers
# [7] = dynamic-bubble pulsation, 2.5 min, 37° C., mimic 10 wt % in TL, originally synthesized polymers
# [8] = dynamic-bubble pulsation, 10 min, 37° C., mimic 10 wt % in TL, originally synthesized polymers
Molecule,γ 1 min Avg (mean surface tension) ([1]; 1 min),γ 2.5 min Avg (mean surface tension) ([1]; 2.5 min),γ 5 min Avg (mean surface tension) ([1]; 5 min),γ 10 min Avg (mean surface tension) ([1]; 10 min),γeq 20 min Avg (mean surface tension) ([1]; 20 min),"γmax [2, 5]","γmin [2, 5]","Avg % Comp: percent bubble surface area compression required to reach 20 mN m-1 upon compression ([2]; at 5 minutes of dynamic-bubble pulsation on the PBS, 37° C.)","γ max Avg, 1 min [2, 6]","γ min Avg, 1 min [2, 6]","γ max Avg, 2.5 min [2, 7]","γ min Avg, 2.5 min [2, 7]","γ max Avg, 10 min [2, 8]","γ min Avg, 10 min [2, 8]",adsorbed γ [3],γmax ([4]; PBS cycling loop),γmin ([4]; PBS cycling loop),percent compression to reach 20 mN m^−1 [4]
"SP-B1-25: modified peptide SP-B1-25 (Cys8,11→Ala), surface-active peptide fragment of SP-B, positive control (FPIPLPYAWLARALIKRIQAMIPKG; Pulmonary surfactant-associated protein B in Tanaka lipid film; UniProt P07988 201-225, looked up, variant C8A C11A)",40.5 mN m−1,39.4 mN m−1,37.9 mN m−1,36.8 mN m−1,35.6 mN m−1,~50 mN m^−1,near zero,33.2%,49.6 mN m−1,<1 mN m−1,49.9 mN m−1,<1 mN m−1,49.8 mN m−1,<1 mN m−1,,,,
B1,,,,,,,,,,,,,,,~26 mN m^−1,~36 mN m^−1,near-zero,~21%
